Source: PMC2615049

Tests used:
[1] = target: Bovine cationic trypsin (bovine); test: equilibrium titration with spectrophotometric assay of residual free trypsin
[2] = target: Bovine cationic trypsin (bovine); test: ITC

Kd [1] [pM]	dH (enthalpy of dissociation, ΔHd, at 25 °C, HEPES buffer) [2] [kcal/mol]	Substance
170	–	C14S BPTI variant (natural protein)
–	10.6	C14S/C38S BPTI variant (natural protein)
